Reference: doi:10.1101/2023.10.27.564484, “Insights into Molecular Diversity within the FET Family: Unraveling Phase Separation of the N-Terminal Low Complexity Domain from RNA-Binding Protein EWS” (bioRxiv, 2023)

B1: EWS low-complexity domain (N-terminal 264 residues of RNA-binding protein EWS) [not stated] / itself (parent)
chain: GAMASTDYSTYSQAAAQQGYSAYTAQPTQGYAQTTQAYGQQSYGTYGQPTDVSYTQAQTTATYGQTAYATSYGQPPTGYTTPTAPQAYSQPVQGYGTGAYDTTTATVTTTQASYAAQSAYGTQPAYPAYGQQPAATAPTRPQDGNKPTETSQPQSSTGGYNQPSLGYGQSNYSYPQVPGSYPMQPVTAPPSYPPTSYSSTQPTSYDQSSYSQQNTYGQPSSYGQQSSYGQQSSYGQQPPTSYPPQTGSYSQAPSQYSQQSSSYGQQ

Variants of: B1
Assay: pelleting assay (phase separation)
Conditions: with itself; 50 µM protein, 150 mM NaCl, 20 mM Tris pH 7.4; read off a plot
Work on chain 1 Y46S yielded a screen value of 0.64.
For chain 1 Y172S Y174S, the screen value was 0.81.
chain 1 Y174S gave a screen value of 0.75.
chain 1 Y210S showed a screen value of 0.5.
In the case of chain 1 N171S, the screen value is reported as 0.6.
